Assay [1] has as its target T1, hVISTA-Fc labelled with d2 (human, UniProt Q9H7M9 33-194, labelled with d2 (HTRF acceptor); site not stated).
T1 construct: It may be the same protein as rhVISTA-Fc of the Biacore assay, with a d2 label; also called VISTA-Fc-d2; not shown: Fc
T1 sequence: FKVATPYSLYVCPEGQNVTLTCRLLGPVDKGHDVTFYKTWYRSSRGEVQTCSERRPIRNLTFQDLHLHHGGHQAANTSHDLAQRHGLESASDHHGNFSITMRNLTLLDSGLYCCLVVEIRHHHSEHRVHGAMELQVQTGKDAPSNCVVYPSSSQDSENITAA
Briefly: HTRF, VISTA-Fc-d2 and PSGL1-His/anti-His-Tb, pH 6; antibody at 2.5 µg/mL; mean of 3 experiments. (TR-FRET usually uses a lanthanide donor and a delayed reading to cut background.)

The target of assay [2] is T1, hVISTA-Fc labelled with d2. Briefly: HTRF, VISTA-Fc-d2 and PSGL1-His/anti-His-Tb, pH 6; antibody at 0.63 µg/mL; mean of 3 experiments.
In assay [3] the target is T1, hVISTA-Fc labelled with d2. Briefly: HTRF, VISTA-Fc-d2 and PSGL1-His/anti-His-Tb, pH 6; antibody at 10 µg/mL; mean of 3 experiments.
In assay [4] the target is T1, hVISTA-Fc labelled with d2. Briefly: HTRF competition, VISTA-Fc-d2 and PSGL1-His/anti-His-Tb, pH 6.
Assay [5] deals with T1, hVISTA-Fc labelled with d2. Briefly: HTRF, VISTA-Fc-d2 and PSGL1-His/anti-His-Tb, pH 6; antibody at 5 µg/mL; mean of 3 experiments.
Assay [6] concerns the target T1, hVISTA-Fc labelled with d2. Briefly: HTRF, VISTA-Fc-d2 and PSGL1-His/anti-His-Tb, pH 6; antibody at 1.25 µg/mL; mean of 3 experiments.
Assay [7] concerns the target T1, hVISTA-Fc labelled with d2. Briefly: HTRF, VISTA-Fc-d2 and PSGL1-His/anti-His-Tb, pH 6; antibody at 0.31 µg/mL; mean of 3 experiments.
The target in assay [8] is T1, hVISTA-Fc labelled with d2. Briefly: HTRF, VISTA-Fc-d2 and PSGL1-His/anti-His-Tb, pH 6; antibody at 0.16 µg/mL; mean of 3 experiments.
The target in assay [9] is T2, recombinant human (rh) VISTA-His protein (human, UniProt Q9H7M9 33-194).
T2 construct: A soluble His-tagged protein is probably the extracellular domain; also called rhVISTA-TagHis; rhVISTA-his (monomer); not shown: His tag
T2 sequence: T1 sequence
Briefly: indirect ELISA, rhVISTA-His captured by coated anti-His antibody; Mean EC50 'Prism' n = 3. How it is done:
(§1) After incubation, the coating solution was removed and plates were blocked by adding 250 μl blocking buffer (0.5% gelatin in 1×PBS) for at least 1 hour at 37° C.
Background: In an ELISA, binding on a coated surface is turned into a signal by an enzyme label.

The target of assay [10] is T2, recombinant human (rh) VISTA-His protein. Briefly: indirect ELISA, rhVISTA-His captured by coated anti-His antibody; experiment n3. How it is done:
as §1

For assay [11] the target is unchanged. Briefly: indirect ELISA, rhVISTA-His captured by coated anti-His antibody; mean EC50 of n1-n3. How it is done: as §1
Assay [12] has the same target. Briefly: direct ELISA, rhVISTA-His coated on plate; Mean EC50 'Prism' n = 3. How it is done:
as §1

Assay [13] shares this target. Briefly: indirect ELISA, rhVISTA-His captured by coated anti-His antibody; experiment n1. How it is done: as §1
Assay [14] shares this target. Briefly: direct ELISA, rhVISTA-His coated on plate; mean EC50 of n1-n3. How it is done:
as §1

The target is the same in assay [15]. Briefly: indirect ELISA, rhVISTA-His captured by coated anti-His antibody; experiment n2. The method, then: as §1
The target is the same in assay [16]. Briefly: direct ELISA, rhVISTA-His coated on plate; experiment n1. The method, then: as §1
Assay [17] has the same target. Briefly: direct ELISA, rhVISTA-His coated on plate; experiment n2. The method, then:
as §1

The target is the same in assay [18]. Briefly: direct ELISA, rhVISTA-His coated on plate; experiment n3. The method, then: as §1

Numbering of substitutions follows the chain as printed. Numbers in names are those of the source. Where “and” joins values, the source holds several entries; their conditions need not be identical. Identical values can stand only once.

Regarding “anti-VISTA R&D Systems #71261 (antibody)”, the percentage of the specific HTRF signal in assay [1] amounted to 63%; in [2], 81%; in assay [3], 34%; in [5], 50%; in [6], 68%; in assay [7], 88%. In assay [8], this molecule came in with a percentage of the specific HTRF signal of 89%. The molecule also gave an IC50 in [4] of 333000 pM.

B1: anti-VISTA antibody Ab1 (N55D substitution in the CDR-H2) (antibody, human IgG1, kappa, V domains shown)
VH: QVQLVQSGAEVKKPGASVKISCKASGFSFTGYTMNWVRQAPGQGLEWIGLISPYDGGTSYAQKFQGRATLTVDTSTSTAYMELSSLRSEDTAVYYCARRAYGYAMDYWGQGTLVTVSS
VL: EIVLTQSPATLSLSPGERVTMSCSASSSVSYMYWYQQKPGQAPRLLIYDTSNLASGVPARFSGSGSGTDYTLTISSMEPEDFAVYYCQQWSSYPFTFGQGTKLEIKR
modifications: N-terminal glutamine mainly in the pyroglutamic acid form; N-glycan at Asn298; most of the C-terminal lysines clipped
notes: also called anti-VISTA Ab1
On to B1, for which the EC50 in assay [9] came to 47.1 pM; in assay [10] it was 46.5 pM; in assay [11], 47.1 pM; in assay [12], 1020 pM; in assay [13] it was 50.1 pM; in assay [14] it was 1020 pM. The EC50 in [15] is 44.7 pM; in assay [16] it was 1040 pM; in assay [17] it was 1080 pM; in [18], 928 pM. In [4], this molecule yielded an IC50 of 2300 pM.

B2: monoclonal antibody Ab3 (unmutated antibody) (antibody, human IgG1, kappa, V domains shown)
VH: B1 VH with D55N
VL: B1 VL
modifications: partly deamidated at N55 (mixture of N55/N55, N55/D55 and D55/D55 charge variants)
notes: The batch is kept in the printed label of each row; also called Ab 3 batch 1; Ab 3 batch 2
As to B2, the concentration for a half-maximal effect (EC50) in assay [9] is 39.3 pM; in assay [10] it was 38.6 pM and 38 pM; in assay [11] it was 39.6 pM and 39.3 pM; in [12] it was 959 pM and 671 pM; in [13] it was 45.8 pM and 38.2 pM; in assay [14], 671 pM and 961 pM. In addition, the EC50 in assay [15] was 34.2 pM and 41.8 pM; in assay [16] it was 641 pM and 1100 pM; in assay [17] it was 728 pM and 877 pM; in assay [18], 645 pM and 901 pM.

Usually IC50 stands for the concentration at which inhibition is half-maximal. Low values mean greater potency, high ones weaker potency. Broadly, the EC50 is the concentration giving half of the maximal effect.

For the origin of these results see patent US20240209094A1 (PIERRE FABRE MEDICAMENT, published 2024).
